Source: article PMC4069103, “Computational Design of a pH Stable Enzyme: Understanding Molecular Mechanism of Penicillin Acylase's Adaptation to Alkaline Conditions” (PLoS ONE, 2014)

Substrate: O=C(Cc1ccccc1)Nc1ccc([N+](=O)[O-])c(C(=O)O)c1
Test: purified protein
Type: biochemical, Escherichia coli
Conditions: pH 7.5, 25°C, 10 mM phosphate, 0.1 M KCl, hydrolysis

B1: penicillin acylase from Escherichia coli (EcPA) (Escherichia coli) (protein)
chain 1: EQSSSEIKIVRDEYGMPHIYANDTWHLFYGYGYVVAQDRLFQMEMARRSTQGTVAEVLGKDFVKFDKDIRRNYWPDAIRAQIAALSPEDMSILQGYADGMNAWIDKVNTNPETLLPKQFNTFGFTPKRWEPFDVAMIFVGTMANRFSDSTSEIDNLALLTALKDKYGVSQGMAVFNQLKWLVNPSAPTTIAVQESNYPLKFNQQNSQTA
chain 2: SNMWVIGKSKAQDAKAIMVNGPQFGWYAPAYTYGIGLHGAGYDVTGNTPFAYPGLVFGHNGVISWGSTAGFGDDVDIFAERLSAEKPGYYLHNGKWVKMLSREETITVKNGQAETFTVWRTVHGNILQTDQTTQTAYAKSRAWDGKEVASLLAWTHQMKAKNWQEWTQQAAKQALTINWYYADVNGNIGYVHTGAYPDRQSGHDPRLPVPGTGKWDWKGLLPFEMNPKVYNPQSGYIANWNNSPQKDYPASDLFAFLWGGADRVTEIDRLLEQKPRLTADQAWDVIRQTSRQDLNLRLFLPTLQAATSGLTQSDPRRQLVETLTRWDGINLLNDDGKTWQQPGSAILNVWLTSMLKRTVVAAVPMPFDKWYSASGYETTQDGPTGSLNISVGAKILYEAVQGDKSPIPQAVDLFAGKPQQEVVLAALEDTWETLSKRYGNNVSNWKTPAMALTFRANNFFGVPQAAAEETRHQAEYQNRGTENDMIVFSPTTSDRPVLAWDVVAPGQSGFIAPDGTVDKHYEDQLKMYENFGRKSLWLTKQDVEAHKESQEVLHVQR
notes: heterodimer of alpha (209 residues) and beta (557 residues) chains matured from one pac precursor; modified pBR322 vector with cat gene, expressed in E. coli TG-1, osmotic shock, hydrophobic chromatography; no tag mentioned
  Km: 25.0 ± 0.8 µM
  kcat: 25 ± 1.4 s⁻¹
  kcat/Km: 1e+06 ± 90000 M⁻¹ s⁻¹
